Source: patent publication US11396668B2, “Methods of producing nor-opioid and nal-opioid benzylisoquinoline alkaloids” (priority 2016, dated 2022)
Residue numbers refer to the chain shown, from its start.

Assays:
[1] = tested on: tyrosine hydroxylase activity (wild-type RnTyrH); test: L-DOPA and BH4 levels with antioxidant added to growth media of engineered yeast; assay type: cell-based; settings: 2 mM in the media
Source text: A yeast strain containing the following mutations to central metabolism (as described in U.S. Provisional Patent Application Ser. No. 61/899,496): ARO4^FBR, ΔZWF1, and GPD-TKL1 promoter replacement and expressing four chromosomally integrated genes from R. norvegicus that generate the cosubstrate tetrahydrobiopterin (pyruvoyl tetrahydropterin synthase, PTPS; sepiapterin reductase, SepR; pterin 4a-carbinolamine dehydratase, PCD; dihydropteridine reductase, QDHPR) as well as wild-type RnTyrH from a low-copy plasmid under the control of the GPD promoter was grown in selective defined media (YNB) lacking tyrosine with 2% galactose and 2 mM ascorbic acid for 96 hours.
The production of L-DOPA was measured in the media via LC-MS/MS in MRM mode with the transition 198 m/z to 152 m/z. […] In addition, the concentration BH4 intermediates were measured with LC-MS/MS in MRM mode with the following transitions: B, 238 m/z to 178 m/z; BH2, 240 m/z to 165 m/z and BH4, 242 m/z to 166 m/z.
Accordingly, FIG. 11A illustrates addition of antioxidants to culture media that improves L-DOPA production by tyrosine hydroxylase in engineered yeast strains and (B) addition of antioxidants to culture media that increase BH4 levels, in accordance with embodiments of the invention. […] The production of L-DOPA was measured in the media via LC-MS/MS in MRM mode with the transition 198 m/z to 152 m/z. […]

[2] = tested on: L-DOPA production by tyrosine hydroxylase; test: L-DOPA production with DHFR coexpressed with wild-type RnTyrH in engineered yeast; assay type: cell-based; settings: YNB lacking tyrosine, 2% dextrose, 96 hours
Source text: Dihydrofolate reductase (DHFR) from R. norvegicus was yeast codon optimized, synthesized, and cloned into a low-copy plasmid under the control of a GPD promoter. DHFR was coexpressed with wild-type RnTyrH (low-copy plasmid with a GPD promoter) in a yeast strain containing the following mutations to central metabolism (as described in U.S. Provisional Patent Application Ser. No. 61/899,496): ARO4^FBR, ΔZWF1, and GPD-TKL1 promoter replacement. In addition, the strain expressed four chromosomally integrated genes from R. norvegicus that generate the cosubstrate tetrahydrobiopterin (pyruvoyl tetrahydropterin synthase, PTPS; sepiapterin reductase, SepR; pterin 4a-carbinolamine dehydratase, PCD; dihydropteridine reductase, QDHPR). The strains expressing DHFR and wild-type RnTyrH were grown in selective defined media (YNB) lacking tyrosine with 2% dextrose for 96 hours, and the production of L-DOPA was measured in the media via LC-MS/MS in MRM mode with the transition 198 m/z to 152 m/z. Expression of DHFR with wild-type RnTyrH increases L-DOPA production by 1.8-fold, as illustrated in FIG. 10. As such, FIG. 10 illustrates coexpression of dihydrofolate reductase (DHFR) that improves L-DOPA production by tyrosine hydroxylase in engineered yeast strains, in accordance with embodiments of the invention.

thebaine = test: Thebaine N-demethylase activity of BM3 variants in yeast; assay type: cell-based, yeast strains (CEN.PK2); settings: 100 μM thebaine, 20 hours, buffers pH 5.0-8.5
Procedure: (§1) Specifically, BM3 variants 4H9, 7A1, and 8F11 (listed in Table 6) were integrated into the genomes of individual yeast strains (CEN.PK2) and incubated in citric acid-phosphate buffer (pH 5.0, 6.0, 7.0) and Tris-HCl buffer (pH 7.5, 8.0, 8.5) with 100 μM thebaine for 20 hours. A genetic construct which was identical except for the exclusion of the BM3 open reading frame was integrated to generate a no-enzyme control strain. […] The northebaine generated by the yeast strains was quantified by liquid chromatography mass spectrometry. The mass spectrum of northebaine (m/z 298) lacked the m/z 58 product ion consistent with a demethylated nitrogen (see FIG. 27C).
as §1, with “FIG. 27A, FIG. 27B and FIG. 27C illustrate the functional expression of BM3 variants, in accordance with embodiments of the invention. […] FIG. 27B illustrates the functional expression of BM3 variants with thebaine N-demethylase activity in yeast.” for “Specifically,”, “8F11” for “8F11 (listed in Table 6)”

oxycodone = test: Oxycodone 3-O-demethylase activity of CODM in crude yeast cell lysate; assay type: biochemical, yeast strain W303; settings: 0.1 mM oxycodone, 10 mM 2-oxoglutarate, 30° C., 3 h, LC-MS
Procedure: FIG. 29 illustrates the functional expression of CODM, in accordance with embodiments of the invention. In particular, FIG. 29 illustrates the functional expression of CODM with oxycodone 3-O-demethylase activity in yeast. The yeast codon-optimized CODM gene was integrated into the genome of yeast strain W303 and cultured in synthetic complete media for 16 hours. The parent W303 strain was also cultured in synthetic complete media for 16 hours as a no-enzyme control. The cells were pelleted and washed with 1 mL breaking buffer (100 mM Tris-HCl pH 7.5, 10% glycerol, 14 mM 2-mercaptoethanol, lx protease inhibitor). Cells were resuspended in 200 μL breaking buffer and lysed by glass bead disruption. The crude cell lysates were incubated with 10 mM ascorbic acid, 0.5 mM iron(II) sulfate, 0.1 mM oxycodone as substrate and 10 mM 2-oxoglutarate as cosubstrate in a total volume of 100 μL. 4 mM DTT was also added as a reducing agent to keep iron in the Fe^2+ state. The reaction was incubated at 30° C. for 3 h and quenched by diluting it 1:1 in ethanol with 0.1% acetic acid. […] The mass-charge ratio (m/z 302), retention time, and mass spectrum of oxymorphone produced by the yeast strain matched that of a purchased oxymorphone standard (see FIG. 29).

Question: What does the source list for `O=C1O[C@H]([C@@H](O)CO)C(O)=C1O` [ascorbic acid]?
Answer: improvement of L-DOPA production with wild-type RnTyrH ([1]; 96 hours): 1.8 fold; BH4 in the media ([1]; LC-MS/MS): increases BH4 in the media

B1: DHFR: Dihydrofolate reductase from R. norvegicus, yeast codon optimized, expressed from low-copy plasmid (protein, UniProt Q920D2 1-187, looked up)
Dihydrofolate reductase: MVRPLNCIVAVSQNMGIGKNGDLPWPLLRNEFKYFQRMTTTSSVEGKQNLVIMGRKTWFSIPEKNRPLKDRINIVLSRELKEPPQGAHFLAKSLDDALKLIEQPELASKVDMVWVVGGSSVYQEAMNQPGHLRLFVTRIMQEFESDTFFPEIDLEKYKLLPEYPGVLSEIQEEKGIKYKFEVYEKKD
Question: Which “increase of L-DOPA production” value [2] does the source give for B1 here?
Answer: Its value is 1.8 fold.

B2: 4H9: BM3 variant (Bacillus megaterium cytochrome P450) listed in Table 6 (protein)
chain: MTIKEMPQPKTFGELKNLPLLNTDKPVQALMKIADELGEIFKFEAPGRVTRYLSSQRLIKEACDESRFDKNLSQALKFARDFAGDGLVTSWTHEKNWKKAHNILLPSFSQQAMKGYHAMMVDIAVQLVQKWERLNADEHIEVSEDMTRLTLDTIGLCGFNYRFNSFYRDQPHPFIISMVRAADEVMNKLQRANPDDPAYDENKRQFQEDIKVMNDLVDKIIADRKARGEQSDDLLTQMLNGKDPETGEPLDDGNIRYQIIAFLIAGHETTSGLLSFALYFLVKNPHVLQKVAEEAARVLVDPVPSYKQVKQLKYVGMVLNEALRLWPTAPAFSLYAKEDTVLGGEYPLEKGDEVMVLIPQLHRDKTVWGDDVEEFRPERFENPSAIPQHAFKPFGNGQRACIGQQFALHEATLVLGMMLKHFDFEDHTNYELDIKETATLKPKGFVVKAKSKKIPLGGIPSPSTEQSAKKVRKKAENAHNTPLLVLYGSNMGTAEGTARDLADIAMSKGFAPQVATLDSHAGNLPREGAVLIVTASYNGHPPDNAKQFVDWLDQASADEVKGVRYSVFGCGDKNWATTYQKVPAFIDETLAAKGAENIADRGEADASDDFEGTYEEWREHMWSDVAAYFNLDIENSEDNKSTLSLQFVDSAADMPLAKMHGAFSTNVVASKELQQPGSARSTRHLEIELPKEASYQEGDHLGVIPRNYEGIVNRVTARFGLDASQQIRLEAEEEKLAHLPLAKTVSVEELLQYVELQDPVTRTQLRAMAAKTVCPPHKVELEALLEKQAYKEQVLAKRLTMLELLEKYPACEMKFSEFIALLPSIRPRYYSISSSPRVDEKQASITVSVVSGEAWSGYGEYKGIASNYLAELQEGDTITCFISTPQSEFTLPKDPETPLIMVGPGTGVAPFRGFVQARKQLKEQGQSLGEAHLYFGCRSPHEDYLYQEELENAQSEGIITLHTAFSRMPNQPKTYVQHVMEQDGKKLIELLDQGAHFYICGDGSQMAPAVEATLMKSYADVHQVSEADARLWLQQLEEKGRYAKDVWAG
Question: B2 was tested. Which “northebaine production from thebaine (N-demethylation)” value (“northebaine production from thebaine” below) (thebaine) did it give?
Answer: The value was “produced northebaine at all tested pH levels above 7.0”.

B3: 7A1: BM3 variant (Bacillus megaterium cytochrome P450) listed in Table 6 (protein)
chain: B2 chain with L76A, M178A, A438L
Question: B3 was tested. Which “northebaine production from thebaine” value (thebaine) did it give?
Answer: The value was “produced northebaine at all tested pH levels above 7.0”.

B4: 8F11: BM3 variant (Bacillus megaterium cytochrome P450) listed in Table 6 (protein)
chain: B2 chain with A182L, A261T
Question: With B4 as the molecule, how does the “northebaine production from thebaine” value (thebaine) read?
Answer: The value was “produced northebaine at all tested pH levels above 7.0”.

B5: CODM: codeine O-demethylase, yeast codon-optimized gene integrated into yeast strain W303 (protein, listed as Papaver somniferum)
chain: METPILIKLGNGLSIPSVQELAKLTLAEIPSRYTCTGESPLNNIGASVTDDETVPVIDLQNLLSPEPVVGKLELDKLHSACKEWGFFQLVNHGVDALLMDNIKSEIKGFFNLPMNEKTKYGQQDGDFEGFGQPYIESEDQRLDWTEVFSMLSLPLHLRKPHLFPELPLPFRETLESYLSKMKKLSTVVFEMLEKSLQLVEIKGMTDLFEDGLQTMRMNYYPPCPRPELVLGLTSHSDFSGLTILLQLNEVEGLQIRKEERWISIKPLPDAFIVNVGDILEIMTNGIYRSVEHRAVVNSTKERLSIATFHDSKLESEIGPISSLVTPETPALFKRGRYEDILKENLSRKLDGKSFLDYMRM
Question: With B5 as the molecule, how does the “oxymorphone generated from oxycodone (3-O-demethylation)” value (oxycodone) read?
Answer: The value was “detected by LC-MS”.
